The data set has as its system monoclonal antibody 2G12 (anti-HIV gp120). Briefly: filter.

Where only a bound is given, the exact number is not on record here.

This is an account of results in patent US20130116417.

One may read the Kd as a measure of binding affinity in units of concentration. Read a high Kd as lower affinity. With “CACCAAATACGGGTACGGGCCCGGCUGUUUCAGAUGCUGUAAGUAAGGUGACUGCGGAACAACAG [Man4-16 (clone 16 glyco-DNA)]”, the dissociation constant Kd (each U is 5-ethynyl-dU glycosylated with Man4-azide by CuAAAC click (10 sites), T in the primer region unmodified, 20 mM Tris pH 7.5, 100 mM NaCl, 2 mM MgSO4, 0.02% Tween-20, room temperature, 3 h, after 7 SELMA rounds) stood at 220 nM.
For “CTGTTGTTCCGCAGTCACCTTNNNNNNNNNNNNNNNNNNNNNNNNNCCCGTACCCGTATTTGGTGGCAAGGATGACAAGGATTTTATATTTTATATTTTTATTTTATTATCGGGTACGGG [initial random glyco-DNA library]”, the binding (library template (-)-strand listed, assayed (+)-strand has 5-ethynyl-dU in place of T, glycosylated with Man4-azide, initial random library, less than 3% bound) is < 3 % bound.
